In the Human Domainome abundance scans (Beltran et al. 2025) one finds abundance fitness data, which are given here for 39 variants.

± gives the uncertainty stated by the source.

The chains are these.
B1: POU domain, class 2, transcription factor 2, residues 200 to 269; numbered along this chain, P09086 (parent)
chain: LEELEQFARTFKQRRIKLGFTQGDVGLAMGKLYGNDFSQTTISRFEALNLSFKNMCKLKPLLEKWLNDAE

Variants of B1 are the subject of this series. Nature of the series: abundance fitness (aPCA) (normalised: wild type 0, dead -1); higher = more abundant; growth selection in yeast, the domain comes from the species named. The note with it: Homo sapiens.
As for LEELEQFARTFKQRRIKLGFTQGDVGLAMGKLYGNDFSQTTISRFEALNLSFKNMCKLPPLLEKWLNDAE, the abundance fitness is -0.761 ± 0.12.

On to LEELEQFARTFKQRRIKLGFTQGDVGLAMGKLYGNDFSQTTISRFEALNLSFKNMCKLHPLLEKWLNDAE, for which the abundance fitness is -0.098 ± 0.14.

LEELEQFARTFKQRRIKLGFTQGDVGLAMGKLYGNDFSQTTISRFEALNLSFKNMCKLRPLLEKWLNDAE: the abundance fitness is -0.078 ± 0.047.

LEELEQFARTFKQRRIKLGFTQGDVGLAMGKLYGNDFSQTTISRFEALNLSFKNMCKLIPLLEKWLNDAE: the abundance fitness was 0.001 ± 0.13.

Regarding LEELEQFARTFKQRRIKLGFTQGDVGLAMGKLYGNDFSQTTISRFEALNLSFKNMCKLWPLLEKWLNDAE, the abundance fitness was -0.078 ± 0.054.

Take LEELEQFARTFKQRRIKLGFTQGDVGLAMGKLYGNDFSQTTISRFEALNLSFKNMCKLGPLLEKWLNDAE: the abundance fitness is -0.079 ± 0.038.

As to LEELEQFARTFKQRRIKLGFTQGDVGLAMGKLYGNDFSQTTISRFEALNLSFKNMCKLVPLLEKWLNDAE, the abundance fitness was -0.031 ± 0.036.

LEELEQFARTFKQRRIKLGFTQGDVGLAMGKLYGNDFSQTTISRFEALNLSFKNMCKLTPLLEKWLNDAE: the abundance fitness was -0.167 ± 0.049.

In the case of LEELEQFARTFKQRRIKLGFTQGDVGLAMGKLYGNDFSQTTISRFEALNLSFKNMCKLQPLLEKWLNDAE, the abundance fitness was -0.094 ± 0.076.

For LEELEQFARTFKQRRIKLGFTQGDVGLAMGKLYGNDFSQTTISRFEALNLSFKNMCKLKPILEKWLNDAE, the abundance fitness was -0.141 ± 0.1.

Consider LEELEQFARTFKQRRIKLGFTQGDVGLAMGKLYGNDFSQTTISRFEALNLSFKNMCKLKPCLEKWLNDAE, for which the abundance fitness came to 0.026 ± 0.048.

For the variant LEELEQFARTFKQRRIKLGFTQGDVGLAMGKLYGNDFSQTTISRFEALNLSFKNMCKLKPYLEKWLNDAE, the abundance fitness was -0.082 ± 0.15.

For LEELEQFARTFKQRRIKLGFTQGDVGLAMGKLYGNDFSQTTISRFEALNLSFKNMCKLKPMLEKWLNDAE, the abundance fitness is -0.031 ± 0.044.

For LEELEQFARTFKQRRIKLGFTQGDVGLAMGKLYGNDFSQTTISRFEALNLSFKNMCKLKPTLEKWLNDAE, the abundance fitness stood at 0.008 ± 0.04.

As for LEELEQFARTFKQRRIKLGFTQGDVGLAMGKLYGNDFSQTTISRFEALNLSFKNMCKLKPQLEKWLNDAE, the abundance fitness worked out at 0.013 ± 0.042.

For the variant LEELEQFARTFKQRRIKLGFTQGDVGLAMGKLYGNDFSQTTISRFEALNLSFKNMCKLKPFLEKWLNDAE, the abundance fitness amounted to 0.05 ± 0.096.

Consider LEELEQFARTFKQRRIKLGFTQGDVGLAMGKLYGNDFSQTTISRFEALNLSFKNMCKLKPVLEKWLNDAE, for which the abundance fitness was -0.064 ± 0.032.

With LEELEQFARTFKQRRIKLGFTQGDVGLAMGKLYGNDFSQTTISRFEALNLSFKNMCKLKPPLEKWLNDAE, the abundance fitness is -0.027 ± 0.032.

Consider LEELEQFARTFKQRRIKLGFTQGDVGLAMGKLYGNDFSQTTISRFEALNLSFKNMCKLKPRLEKWLNDAE, for which the abundance fitness was -0.038 ± 0.031.

Consider LEELEQFARTFKQRRIKLGFTQGDVGLAMGKLYGNDFSQTTISRFEALNLSFKNMCKLKPGLEKWLNDAE, for which the abundance fitness was -0.093 ± 0.032.

Take LEELEQFARTFKQRRIKLGFTQGDVGLAMGKLYGNDFSQTTISRFEALNLSFKNMCKLKPDLEKWLNDAE: the abundance fitness was -0.006 ± 0.14.

For the variant LEELEQFARTFKQRRIKLGFTQGDVGLAMGKLYGNDFSQTTISRFEALNLSFKNMCKLKPHLEKWLNDAE, the abundance fitness was -0.064 ± 0.079.

Consider LEELEQFARTFKQRRIKLGFTQGDVGLAMGKLYGNDFSQTTISRFEALNLSFKNMCKLKPSLEKWLNDAE, for which the abundance fitness was -0.038 ± 0.04.

As to LEELEQFARTFKQRRIKLGFTQGDVGLAMGKLYGNDFSQTTISRFEALNLSFKNMCKLKPKLEKWLNDAE, the abundance fitness worked out at 0.032 ± 0.056.

With LEELEQFARTFKQRRIKLGFTQGDVGLAMGKLYGNDFSQTTISRFEALNLSFKNMCKLKPALEKWLNDAE, the abundance fitness was -0.043 ± 0.041.

On to LEELEQFARTFKQRRIKLGFTQGDVGLAMGKLYGNDFSQTTISRFEALNLSFKNMCKLKPLPEKWLNDAE, for which the abundance fitness is -0.93 ± 0.27.

Turning to LEELEQFARTFKQRRIKLGFTQGDVGLAMGKLYGNDFSQTTISRFEALNLSFKNMCKLKPLDEKWLNDAE, the abundance fitness is -0.999 ± 0.1.

Consider LEELEQFARTFKQRRIKLGFTQGDVGLAMGKLYGNDFSQTTISRFEALNLSFKNMCKLKPLAEKWLNDAE, for which the abundance fitness was -0.166 ± 0.04.

For the variant LEELEQFARTFKQRRIKLGFTQGDVGLAMGKLYGNDFSQTTISRFEALNLSFKNMCKLKPLCEKWLNDAE, the abundance fitness was -0.096 ± 0.1.

With LEELEQFARTFKQRRIKLGFTQGDVGLAMGKLYGNDFSQTTISRFEALNLSFKNMCKLKPLEEKWLNDAE, the abundance fitness is -0.974 ± 0.13.

As for LEELEQFARTFKQRRIKLGFTQGDVGLAMGKLYGNDFSQTTISRFEALNLSFKNMCKLKPLVEKWLNDAE, the abundance fitness is -0.043 ± 0.049.

With LEELEQFARTFKQRRIKLGFTQGDVGLAMGKLYGNDFSQTTISRFEALNLSFKNMCKLKPLGEKWLNDAE, the abundance fitness was -0.744 ± 0.064.

For LEELEQFARTFKQRRIKLGFTQGDVGLAMGKLYGNDFSQTTISRFEALNLSFKNMCKLKPLQEKWLNDAE, the abundance fitness was -0.843 ± 0.18.

Turning to LEELEQFARTFKQRRIKLGFTQGDVGLAMGKLYGNDFSQTTISRFEALNLSFKNMCKLKPLTEKWLNDAE, the abundance fitness is -0.501 ± 0.1.

Take LEELEQFARTFKQRRIKLGFTQGDVGLAMGKLYGNDFSQTTISRFEALNLSFKNMCKLKPLREKWLNDAE: the abundance fitness is -0.968 ± 0.11.

Take LEELEQFARTFKQRRIKLGFTQGDVGLAMGKLYGNDFSQTTISRFEALNLSFKNMCKLKPLSEKWLNDAE: the abundance fitness was -0.804 ± 0.1.

LEELEQFARTFKQRRIKLGFTQGDVGLAMGKLYGNDFSQTTISRFEALNLSFKNMCKLKPLMEKWLNDAE: the abundance fitness is 0.025 ± 0.05.

For LEELEQFARTFKQRRIKLGFTQGDVGLAMGKLYGNDFSQTTISRFEALNLSFKNMCKLKPLIEKWLNDAE, the abundance fitness is 0.014 ± 0.096.

Consider LEELEQFARTFKQRRIKLGFTQGDVGLAMGKLYGNDFSQTTISRFEALNLSFKNMCKLKPLKEKWLNDAE, for which the abundance fitness was -0.896 ± 0.15.
